This data set addresses T1, TipR (Caulobacter crescentus NA1000) (UniProt A0A0H3C6G9).
T1 sequence: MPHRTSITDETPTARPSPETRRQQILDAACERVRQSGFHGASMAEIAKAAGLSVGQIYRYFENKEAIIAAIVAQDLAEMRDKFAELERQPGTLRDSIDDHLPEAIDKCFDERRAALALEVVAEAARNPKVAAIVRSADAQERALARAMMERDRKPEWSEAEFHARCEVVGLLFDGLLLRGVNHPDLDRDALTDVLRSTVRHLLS
Kind of data set: EMSA. To be noted: EMSA: 40 mM Tris-HCl pH 7.6, 60 mM KCl, 0.1% glycerol, 240 ug calf DNA, 800 ug BSA, 100-200 ng probe, 30 min room temperature; 4% native TBE acrylamide gel.

As for “GGCGGCGAGTCCCACGGTCGTCGCCGCGACCGAGCGTTGGAAATGCATGTTTGACCCCGGGAGGCGAGGGTCGCGCGGGCTCTTACCCTTGACGCGGCCACTATGATGAACGATTTGAGAATGAACGTTCATTCTCATGTGGGCTGGACATAAGAGCTGGAGTGTCGCAAGTCAACCTCCGGCGCCGCGCGTTTGGCTGACCTAACGGAAATGTAATGCCGCACAGGACTTC (double strand) [PacrA]”, the binding entry is on record as “binds”.

Source of the values: article PMC10754441.
